Results published in article PMC11506546.

Assays:
[1] = molecular target: rabbit skeletal-muscle F-actin (rabbit) (UniProt P68135); test: co-sedimentation; 0.2-3.5 µM tropomyosin with 3 µM F-actin in T buffer (150 mM NaCl, 10 mM Tris-HCl pH 7.5, 2 mM MgCl2), 50 µL, 1 h at room temperature; 670,000 x g, 20 °C, 30 min; SDS-PAGE densitometry; Hill equation fit; apparent Kd
[2] = molecular target: α-actin filament (muscle actin, polymerized from G-actin) (UniProt P68135); test: TIRF microscopy of tropomyosin-decorated single actin filaments; control experiments: the same Tpm isoform labeled with AF488 and with AF568 (0.015 µM of each) mixed with 1 µM G-actin in D buffer, polymerized with 50 mM NaCl for 5-10 min, 10% PEG 300; decorated filaments captured on PLL-PEG/BSA coverslips in microfluidic channels, washed with TIR50 buffer
[3] = molecular target: β-actin filament (cytoskeletal actin, polymerized from G-actin) (UniProt P60709); test: as above

Chain of Tpm1.6 (Tm2), unlabeled recombinant human cytoskeletal tropomyosin (natural protein; modification not given) (chain, as listed by the source): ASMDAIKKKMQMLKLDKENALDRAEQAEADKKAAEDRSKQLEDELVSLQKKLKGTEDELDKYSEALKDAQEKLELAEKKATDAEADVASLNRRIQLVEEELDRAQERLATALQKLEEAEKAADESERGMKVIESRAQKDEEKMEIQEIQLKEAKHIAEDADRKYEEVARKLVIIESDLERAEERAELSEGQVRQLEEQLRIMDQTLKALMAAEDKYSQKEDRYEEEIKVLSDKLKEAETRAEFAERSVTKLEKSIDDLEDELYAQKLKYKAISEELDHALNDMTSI

Kd [1] [nM] | ratio of Tpm in Ch1 (red, AF568)/Ch2 (green, AF488) on the filament, median [2] | ratio of Tpm in Ch1 (red, AF568)/Ch2 (green, AF488) on the filament, median [3] | Substance
640 | – | – | Tpm1.1 (αTm), unlabeled recombinant rat skeletal/cardiac muscle tropomyosin (natural protein)
170 | – | – | Tpm1.1 AF488 (Tpm1.1 labeled at Cys-190 with Alexa Fluor 488 C5 maleimide) (natural protein)
240 | 0.9 | 0.9 | Tpm1.1 AF568 (Tpm1.1 labeled at Cys-190 with Alexa Fluor 568 C5 maleimide) (natural protein)
440 | – | – | Tpm1.6 (Tm2), unlabeled recombinant human cytoskeletal tropomyosin (natural protein; modification not given)
